One experiment concerns the target T1, BCMA-His antigen (UniProt Q02223 1-54).
T1 construct: also called BMCA antigen
T1 sequence (looked up): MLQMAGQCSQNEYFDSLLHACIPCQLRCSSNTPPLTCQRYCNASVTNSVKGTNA
As to the kind of experiment: SPR, BCMA-his coupled on CM5 chip, TCP as analyte, 1:1 fit. The method, then: First the binding affinity of the purified BCMA-TCPs against BMCA antigen was assessed by SPR. BCMA-his antigen was coupled onto a CM5 chip (GE Healthcare Life Sciences), and then a variety of anti-BCMA BsAbs were flowed at the flow rate of 10 uL/min with dissociation time of 900s. Binding kinetics were determined with a 1:1 fit model.

For the next experiment, the target named is T2, BCMA expressed on cells (UniProt Q02223 1-184, limits assumed).
T2 construct: whole, on cells; also called CHOK1-BCMA cell line; BCMA over-expression cell line
T2 sequence (looked up): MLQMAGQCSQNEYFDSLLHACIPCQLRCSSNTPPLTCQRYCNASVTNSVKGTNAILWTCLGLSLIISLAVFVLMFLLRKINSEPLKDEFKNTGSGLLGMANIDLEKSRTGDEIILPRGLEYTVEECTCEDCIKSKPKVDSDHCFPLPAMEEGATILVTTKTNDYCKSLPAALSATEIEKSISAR
As to the kind of experiment: flow cytometry on CHOK1-BCMA+ cells; unit taken from the axis 'Conc.(nM)'. The method, then:
The binding bioactivity for mesothelin and BCMA over-expressing cells was evaluated by flow cytometry. Stable cell lines were harvested using 0.25% Trypsin.
About 5E5 cells were collected per sample, and the cells were resuspended in 100 μL/well tested antibodies with His-tag. Then the cells were incubated with anti-His-tag antibody (Genscript, China) and Streptavidin-PE (Biolegend, China). The incubation step of each step was performed at 4° C. in the dark for 1 hr, and then the cells were washed 2× with 200 μL PBS buffer. The washed cells were resuspended in 200 μL PBS buffer and the sample was analyzed by FACS.
In general terms: A flow cytometer gives signals particle by particle.

In experiment [1] the target is mesothelin (MSLN) expressed on cells (UniProt Q13421). As to the kind of experiment: flow cytometry on 293T-MSLN+ cells; unit taken from the axis 'Conc.(nM)'.
Sequence of mesothelin (MSLN) expressed on cells (Q13421 other isoform, or with tags, fused parts or gaps limits assumed): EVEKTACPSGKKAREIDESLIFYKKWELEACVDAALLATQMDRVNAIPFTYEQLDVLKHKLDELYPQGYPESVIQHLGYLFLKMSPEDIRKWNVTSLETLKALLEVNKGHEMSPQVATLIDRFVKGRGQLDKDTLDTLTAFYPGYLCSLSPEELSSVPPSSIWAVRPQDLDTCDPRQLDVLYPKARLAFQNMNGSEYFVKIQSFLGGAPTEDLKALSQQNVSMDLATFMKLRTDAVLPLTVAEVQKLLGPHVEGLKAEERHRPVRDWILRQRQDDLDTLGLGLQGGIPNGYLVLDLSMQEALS
The target of another experiment is T3, MSLN II + III - Fc (Homo sapiens (Human), UniProt Q13421 391-598).
T3 construct: also called mesothelinII+III; mesothelinII+III domain; not shown: human Fc
T3 sequence (Q13421 other isoform, or with tags, fused parts or gaps limits assumed): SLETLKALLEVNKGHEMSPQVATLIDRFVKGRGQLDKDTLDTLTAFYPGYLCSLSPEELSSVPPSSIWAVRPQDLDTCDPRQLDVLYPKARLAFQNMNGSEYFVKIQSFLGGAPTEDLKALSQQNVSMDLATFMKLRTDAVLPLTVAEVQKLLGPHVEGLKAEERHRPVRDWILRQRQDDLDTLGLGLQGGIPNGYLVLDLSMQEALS
Put plainly: SPR, MSLN domain-Fc captured on protein A chip, M2339 VHH-6his as analyte, 1:1 fit. The method, then:
(§1) Affinity was determined by SPR. Protein A chip was used to capture different antigens, various concentrations of M2339(VHH) were injected at a flow rate of 10 μl/min with an association time of 120 to 180 seconds and a dissociation time from 180 to 1200 seconds. Binding kinetics were determined using Biacore Evaluation software in a 1:1 fit model.
A general note: In SPR one partner is held on a chip, and binding of the other changes the refractive index at the surface.

In another experiment the target is T4, MSLN I - Fc (UniProt Q13421 296-390, limits assumed).
T4 construct: domain: MSLN I; also called mesothelinI; not shown: human Fc
T4 sequence (Q13421 296-390 limits assumed): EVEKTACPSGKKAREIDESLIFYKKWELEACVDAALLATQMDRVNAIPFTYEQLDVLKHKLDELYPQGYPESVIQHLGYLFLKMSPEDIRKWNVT
The experiment is described as above. The method, then: as §1

In a further experiment the target is T5, MSLN III - Fc (UniProt Q13421 487-598, limits assumed).
T5 construct: domain: MSLN III; not shown: human Fc
T5 sequence (Q13421 495-606 limits assumed): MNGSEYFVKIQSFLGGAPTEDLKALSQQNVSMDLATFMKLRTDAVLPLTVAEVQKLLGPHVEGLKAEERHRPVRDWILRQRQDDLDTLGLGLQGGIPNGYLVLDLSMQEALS
Described as above. The method, then:
as §1

A further experiment deals with T6, MSLN II - Fc (UniProt Q13421 391-486, limits assumed).
T6 construct: domain: MSLN II; not shown: human Fc
T6 sequence (Q13421 other isoform, or with tags, fused parts or gaps limits assumed): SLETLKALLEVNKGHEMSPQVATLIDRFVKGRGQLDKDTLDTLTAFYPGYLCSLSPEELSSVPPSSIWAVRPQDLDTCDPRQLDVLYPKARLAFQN
The description is as above. Here is the method:
as §1

A further experiment addresses T7, MSLN I + II - Fc (UniProt Q13421 296-486, limits assumed).
T7 construct: domain: MSLN I + II; not shown: human Fc
The experiment is described as above. The method, then:
as §1

The target of a further experiment is T8, MSLN Full - Fc (UniProt Q13421 296-598, limits assumed).
T8 construct: domain: MSLN Full (mesothelin ECD); also called mesothelin-full; complete mesothelin polypeptide; not shown: human Fc
Described as above. The method, then: as §1

For experiment [2], the target named is T9, MSLN-His antigen (UniProt Q13421 296-580, limits assumed).
T9 construct: also called MSLN-His protein; MSLN antigen
T9 sequence (Q13421 other isoform, or with tags, fused parts or gaps limits assumed): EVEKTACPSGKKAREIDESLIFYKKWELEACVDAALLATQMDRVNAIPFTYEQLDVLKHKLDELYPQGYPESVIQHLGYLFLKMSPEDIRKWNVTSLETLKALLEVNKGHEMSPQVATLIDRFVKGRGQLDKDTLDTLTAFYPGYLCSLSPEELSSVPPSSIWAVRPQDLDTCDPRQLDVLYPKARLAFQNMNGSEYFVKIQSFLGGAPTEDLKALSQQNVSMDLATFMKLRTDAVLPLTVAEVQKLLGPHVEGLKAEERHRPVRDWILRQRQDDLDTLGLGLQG
As to the kind of experiment: SPR (Biacore), VHH-hFc captured on protein A chip, MSLN-His as analyte. The method, then: The antibody was expressed as a hFc fusion protein, named as M2339(VHH) with the procedure that was described in the patent publication WO2020176815A2 (hereby incorporated by reference in its entirety and for all purposes). The binding affinity of M2339(VHH) towards MSLN antigen was tested by surface plasmon resonance (SPR). First, M2339(VHH) was passed through the sensor chip with protein A immobilized in advance, and the antibody was captured by protein A. Then, five different concentrations of MSLN-His protein were used as the mobile phase, and the binding time and dissociation time were 30 min and 60 min, respectively. Biacore evaluation software 2.0 (GE) was used to analyze the on-rate (kₒₙ), off-rate (koff) and equilibrium constant (KD).

Experiment [3] concerns the target mesothelin (MSLN) expressed on cells (UniProt Q13421). As to the kind of experiment: flow cytometry on HEK293T-MSLN cells, serial dilution, anti-human IgG PE detection.
Experiment [4] addresses T9, MSLN-His antigen. Put plainly: SPR as in Example 2, MSLN His antigen.
Experiment [5] deals with mesothelin (MSLN) expressed on cells (UniProt Q13421). Put plainly: flow cytometry on HEK293T-MSLN cells, serial dilution.

As usually defined, the Kd is the concentration at which binding is half-saturated. The term koff denotes the first-order rate constant of dissociation. For orientation: kon means the rate constant with which the complex forms. One may read the EC50 as the concentration needed to bring the measured effect to its halfway point. A higher EC50 goes with a less potent agent. As usually defined, the EC50 (read off the curve) is the concentration needed to bring the measured effect to its halfway point. The low end stands for an effect from little substance, the high end for a need for much substance.

T7 sequence (Q13421 other isoform, or with tags, fused parts or gaps limits assumed): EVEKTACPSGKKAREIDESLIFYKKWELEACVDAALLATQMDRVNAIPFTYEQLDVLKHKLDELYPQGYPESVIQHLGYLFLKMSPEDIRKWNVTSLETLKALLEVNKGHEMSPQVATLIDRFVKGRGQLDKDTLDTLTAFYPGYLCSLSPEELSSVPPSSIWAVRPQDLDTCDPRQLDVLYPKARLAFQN

B1: TCP001-P (bispecific antibody)
chain: QLQLGASGGGLVQPGGSLRLSCALSGFTLRELDEFAIGWFRQAPGKEREGVSCISGTGGITHYADSVKGRFTISRDIAKTTVYLQMNSLNSEDTAVYYCAADERCTDRLIRPPTYWGQGTQVTVSSGGGGSGGGGSGGGGSDIVLTQSPASLAMSLGERATISCRASESVSVIGAHLIHWYQQKPGQPPKLLIYLASNLETGVPARFSGSGSGTDFTLTISRVQAEDAAIYSCLQSRIFPRTFGQGTKLEIKGSTSGSGKPGSGEGSTKGQVQLVQSGSELKKPGESVKISCKASGYTFTDYSINWVKQAPGQGLKWMGWINTETREPAYAYDFRGRFVFSLDTSASTAYLQISSLKAEDTAVYFCALDYSYAMDYWGQGTLVTVSSGGGGSEQKLISEEDLGGGGSHHHHHH
notes: Positive control in TCP format
In the experiment with BCMA-His antigen, B1 gave a Kd of 15.1 pM, a koff of 1.25e-05 s⁻¹ and a kon of 825000 M⁻¹ s⁻¹.

B2: TCP003-C (bispecific antibody)
chain: QLQLGASGGGLVQPGGSLRLSCALSGFTLRELDEFAIGWFRQAPGKEREGVSCISGTGGITHYADSVKGRFTISRDIAKTTVYLQMNSLNSEDTAVYYCAADERCTDRLIRPPTYWGQGTQVTVSSGGGGSAAAGQPREPQVYTLPPSQEEMTKNQVSLTCLVKGFYPSDIAVEWESNGQPENNYKTTPPVLDSDGSFFLYSRLTVDKSRWQEGNVFSCSVMHEALHNHYTQKSLSLSLGKGGGGSGGGGSGGGGSQVQLVESGGGLVQPGGSLRLSCAASGSITSIYAIGWYRQAPGKLRELVAAITTSGNTFYRDSVKGRFTISRDNAKNTVSLQMNSLKSEDTAVYDCNGAPWGDHAPLVVSWDQGTQVTVSSGGGGSEQKLISEEDLGGGGSHHHHHH
notes: also called TCP0031-C (as misprinted); BCMA-TCP
For the molecule B2, the EC50 in the experiment with BCMA expressed on cells was 22300 pM. In the experiment with BCMA-His antigen, this molecule gave a Kd of 7040 pM, a koff of 0.000298 s⁻¹ and a kon of 42300 M⁻¹ s⁻¹. Moreover, in [1], the EC50 amounted to 4320 pM.

B3: TCP-MD (VHH)
VHH: QLQLGASGGGLVQPGGSLRLSCALSGFTLRELDEFAIGWFRQAPGKEREGVSCISGTGGITHYADSVKGRFTISRDIAKTTVYLQMNSLNSEDTAVYYCAADERCTDRLIRPPTYWGQGTQVTVSS
B3 gave an EC50 in experiment [1] of 10500 pM.

B4: M2339 VHH-6his (VHH)
VHH: QLQLGASGGGLVQPGGSLRLSCALSGFTLRELDEFAIGWFRQAPGKEREGVSCISGTGGITHYADSVKGRFTISRDIAKTTVYLQMNSLNSEDTAVYYCAADERCTDRLIRPPTYWGQGTQVTVSS
notes: not shown: 6xHis tag
Take B4: the Kd with MSLN II + III - Fc turned out to be 43.2 pM; in the experiment with MSLN I - Fc, 179 pM; with MSLN III - Fc, 327 pM; with MSLN II - Fc, 999 pM; in the experiment with MSLN I + II - Fc, 366 pM; in the experiment with MSLN Full - Fc, 16.5 pM. Also, the koff in the experiment with MSLN II + III - Fc worked out at 1.96e-05 s⁻¹; in the experiment with MSLN I - Fc, 6.49e-05 s⁻¹; in the experiment with MSLN III - Fc, 0.000185 s⁻¹; in the experiment with MSLN II - Fc it was 0.000244 s⁻¹; in the experiment with MSLN I + II - Fc, 0.000174 s⁻¹; with MSLN Full - Fc it was 1.36e-05 s⁻¹. In addition, the kon with MSLN II + III - Fc turned out to be 454000 M⁻¹ s⁻¹; with MSLN I - Fc, 363000 M⁻¹ s⁻¹; with MSLN III - Fc it was 566000 M⁻¹ s⁻¹; with MSLN II - Fc it was 244000 M⁻¹ s⁻¹; in the experiment with MSLN I + II - Fc, 476000 M⁻¹ s⁻¹; in the experiment with MSLN Full - Fc, 823000 M⁻¹ s⁻¹.

B5: M2339(VHH), expressed as a hFc fusion protein (Fc fusion)
chain: QLQLGASGGGLVQPGGSLRLSCALSGFTLRELDEFAIGWFRQAPGKEREGVSCISGTGGITHYADSVKGRFTISRDIAKTTVYLQMNSLNSEDTAVYYCAADERCTDRLIRPPTYWGQGTQVTVSS
notes: VHH fused to human Fc; also called M2339-hFc; M2339-IgG1; not shown: human Fc (hFc)
In the experiment with MSLN-His antigen [2], B5 registered a Kd of 264 pM, a koff of 1.82e-05 s⁻¹ and a kon of 69000 M⁻¹ s⁻¹. For the same molecule, the EC50 (read off the curve) in experiment [3] came to 4000 pM.

B6: TCP001-C (bispecific antibody)
chain: QLQLGASGGGLVQPGGSLRLSCALSGFTLRELDEFAIGWFRQAPGKEREGVSCISGTGGITHYADSVKGRFTISRDIAKTTVYLQMNSLNSEDTAVYYCAADERCTDRLIRPPTYWGQGTQVTVSSGGGGSGGGGSGGGGSQVQLVESGGGLVQPGGSLRLSCAASGSITSIYAIGWYRQAPGKLRELVAAITTSGNTFYRDSVKGRFTISRDNAKNTVSLQMNSLKSEDTAVYDCNGAPWGDHAPLVVSWDQGTQVTVSSGGGGSEQKLISEEDLGGGGSHHHHHH
notes: also called BCMA-TCP
Take B6: in the experiment with BCMA expressed on cells, the EC50 is 17600 pM. Also, in the experiment with BCMA-His antigen, the Kd was determined as 587 pM, the koff came out at 0.000518 s⁻¹ and the kon amounted to 882000 M⁻¹ s⁻¹. Also, the EC50 in [1] was determined as 13400 pM.

B7: anti-MSLN-1444 VHH (Fc fusion, not shown: a dimerising Fc or GST)
chain: QVQVVESGGGFVQAGGSLRLSCAASTPIISIAYMGWYRQISEKERQLVATINSGGKTYYADSVKGRFTISRDNAKNTLYLQMNMLKPEDTGMYYCAASNKDYNDYDPDWGQGTQVTVSS
In the experiment with MSLN-His antigen [4], B7 displayed a Kd of 2100 pM, a koff of 7.5e-05 s⁻¹ and a kon of 53700 M⁻¹ s⁻¹. The EC50 (read off the curve) in experiment [5] was found to be 10000 pM.

B8: TCP-MC (VHH)
VHH: QVQLVESGGGLVQPGGSLRLSCAASGSITSIYAIGWYRQAPGKLRELVAAITTSGNTFYRDSVKGRFTISRDNAKNTVSLQMNSLKSEDTAVYDCNGAPWGDHAPLVVSWDQGTQVTVSS
notes: also called MC001C
In the case of B8, in the experiment with BCMA-His antigen, binding was characterised by a dissociation constant (Kd) of 138 pM, the koff came to 0.000546 s⁻¹ and the kon came to 3.96e+06 M⁻¹ s⁻¹.
